Biological target: the molecule itself
Assay: SEC-MALS; SEC-MALLS, S-200 Superdex 10/300, 0.5 ml/min, 1x PBS (legend: TBS), protein at 33 µM; monomer and dimer

B1: purified recombinant mouse CAVII protein (mCAVII) (enzyme, UniProt Q9ERQ8 1-264, looked up)
chain: MTGHHCWGYGQDDGPSNWHKLYPIAQGDRQSPINIISSQAVYSPSLQPLELFYEACMSLSITNNGHSVQVDFNDSDDRTVVSGGPLEGPYRLKQLHFHWGKKRDMGSEHTVDGKSFPSELHLVHWNAKKYSTFGEAAAAPDGLAVVGVFLETGDEHPSMNRLTDALYMVRFKDTKAQFSCFNPKCLLPTSRHYWTYPGSLTTPPLSESVTWIVLREPIRISERQMEKFRSLLFTSEDDERIHMVDNFRPPQPLKGRVVKASFQA
notes: carbonic anhydrase VII, mouse; theoretical size of the monomer printed as 30.5 kDa; also called carbonic anhydrase VII; source: CHOEBNALT85 cell line, produced as a secreted protein, purified
stoichiometry N: 2

From paper doi:10.1101/736868 (bioRxiv, 2019)
